Test results from patent publication US20110081661A1, “Modified photoproteins with increased affinity for calcium and enhanced bioluminescence and uses thereof” (Millipore Corporation, priority 2009, published 2011).

What was measured:
[1] = Calcium EC50 of mitochondrially targeted photoproteins in HEK293T cells without cotransfected GPCR or G protein (Table II); type: cell-based; details: no cotransfected GPCR or G protein
Source text: In an exemplary experiment, HEK293T cells (ATCC-CRL-11268) were transiently co-transfected with 2 μgs of each of pcDNA3.1-H1 (containing the cDNA encoding the H1 histamine receptor) and pcDNA3.1 containing the cDNAs encoding wild type mitochondrial Clytin (referred to as mt-Clytin), modified mitochondrial Clytin having a lysine to aspartic acid mutation at position 168 (referred to as mt-Clytin K168D), modified mitochondrial Clytin having a lysine to glutamic acid mutation at position 168 (referred to as mt-Clytin K168E), wild-type mitochondrial Obelin (referred to as mt-Obelin) or wild type mitochondrial Aequorin (referred to as mt-Aequorin) using the Targefect-293 reagent (TARGETING SYSTEMS). 48 hours later, the cells were detached using Accutase (MILLIPORE), centrifuged, and resuspended in […] in FreeStyle293 media (INVITROGEN), for incubation for 3-4 hours at room temperature in the dark. After incubation, the cells were centrifuged and resuspended in HBSS/HEPES buffer without Ca^2+ at a density of 1×10^6 cells/ml. Next, 100 μl/well of cell suspension for each transfection were added by the use of a Victor2 luminometer plate reader (WALLAC, […]), to a 96-well plate containing 50 μL/well Triton X-100 in MOPS/KCl buffer containing 10 mM EGTA and a series of Ca^2+ concentrations, such that free calcium concentrations ranged from 17 nM to 39.6 μM, followed by for measurement of total bioluminescence at 20 seconds.
(§1) Signal to background ratio was calculated as the signal induced by maximal GIP (1 μM) divided by the signal induced by buffer alone. The EC50 value for calcium was determined as described above for FIG. 2 for mitochondrially targeted photoproteins transfected into HEK293T cells in the absence of a cotransfected GPCR or G protein. Affinity for calcium was correlated with the properties of the amino acid side chain at residue 168 of Clytin.

GIP Receptor = target: T1, GIP Receptor (Homo sapiens, UniProt P48546); assay: GIP receptor-mediated bioluminescence in HEK293T cells with chimeric promiscuous G protein (FIG. 5, Table II); type: cell-based; details: for Max signal with GIP (RLU × 10^−5) / EC50: HEK293T cells, GIP Receptor + promiscuous G protein; for EC50: luminescence vs GIP concentration; for % GPCR/total: signal induced by maximal GIP (1 μM) as percentage of signal induced by Triton X-100 with 1 mM Ca^2+; for Signal: background with GIP: signal induced by maximal GIP (1 μM) divided by signal induced by buffer alone
T1 construct: host or cells: HEK293T
T1 sequence (P48546 22-466): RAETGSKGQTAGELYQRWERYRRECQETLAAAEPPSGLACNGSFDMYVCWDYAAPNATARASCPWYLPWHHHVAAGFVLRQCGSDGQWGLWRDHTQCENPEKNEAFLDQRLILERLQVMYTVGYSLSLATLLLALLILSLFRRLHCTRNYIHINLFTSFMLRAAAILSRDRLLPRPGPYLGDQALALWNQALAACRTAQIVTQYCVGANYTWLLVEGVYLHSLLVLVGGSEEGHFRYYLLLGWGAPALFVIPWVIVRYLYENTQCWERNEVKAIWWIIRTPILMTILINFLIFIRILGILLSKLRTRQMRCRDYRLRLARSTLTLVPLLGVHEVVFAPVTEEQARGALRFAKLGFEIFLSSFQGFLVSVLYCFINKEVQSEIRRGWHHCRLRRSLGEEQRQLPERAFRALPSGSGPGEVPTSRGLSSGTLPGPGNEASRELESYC
Procedure: However, coexpression of GIP receptor with a chimeric G protein containing sequences from Gαs and Gαq enable the GIP receptor to stimulate calcium flux.
The results of the dose response curve to varying concentrations of GIP with a subset of the photoproteins are summarized in FIG. 5.
as §1
The EC50 value for receptor-mediated calcium flux induced by the ligand was determined by plotting luminescence (Y-axis) versus ligand concentration applied to the cells (X-axis), and applying a sigmoidal dose-response curve-fitting algorithm (GraphPad Prism). GPCR-mediated signals of the various modified forms of Clytin having an amino acid substitution at position 168 were also related to the nature of the side chain. In addition, the subcellular location of the photoproteins (cytosolic vs mitochondrial) appeared to have an effect on GPCR-mediated signals. […] All of the other mitochondrially targeted mutants except for Clytin K168R and wild-type Clytin yielded results that were in the range of those observed for wt-Aequorin.

Row | Molecule | EC50 [1] [nM] | Max signal with GIP (RLU × 10^−5) (GIP Receptor) | EC50 (GIP Receptor) [nM] | % GPCR/total (GIP Receptor) [%] | Signal: background with GIP (GIP Receptor) | Calcium EC50 (nM) [1]
1 | Mt-clytin K168S: Mitochondrial K168S modified Clytin, SEQ ID NO:22 (protein) MSVLTPLLLRGLTGSARRLPVPRAKIHSLPPEGKLRPNFDNPKWVNRHKFMFNFLDINGDGKITLDEIVSKASDDICAKLGATPEQTKRHQDAVEAFFKKIGMDYGKEVEFPAFVDGWKELANYDLKLWSQNKKSLIRDWGEAVFDIFDKDGSGSISLDEWKAYGRISGICSSDEDAEKTFKHCDLDNSGSLDVDEMTRQHLGFWYTLDPNADGLYGNFVP | 228 | 3.84 | 15.4 | 20.3 | 124.1 | –
2 | Mt-clytin K168T: Mitochondrial K168T modified Clytin, SEQ ID NO:24 (protein) MSVLTPLLLRGLTGSARRLPVPRAKIHSLPPEGKLRPNFDNPKWVNRHKFMFNFLDINGDGKITLDEIVSKASDDICAKLGATPEQTKRHQDAVEAFFKKIGMDYGKEVEFPAFVDGWKELANYDLKLWSQNKKSLIRDWGEAVFDIFDKDGSGSISLDEWKAYGRISGICSSDEDAEKTFKHCDLDNSGTLDVDEMTRQHLGFWYTLDPNADGLYGNFVP | 174 | 4.26 | 13.4 | 22 | 113.4 | –
3 | Mt-clytin K168N: Mitochondrial K168N modified Clytin, SEQ ID NO:18 (protein) MSVLTPLLLRGLTGSARRLPVPRAKIHSLPPEGKLRPNFDNPKWVNRHKFMFNFLDINGDGKITLDEIVSKASDDICAKLGATPEQTKRHQDAVEAFFKKIGMDYGKEVEFPAFVDGWKELANYDLKLWSQNKKSLIRDWGEAVFDIFDKDGSGSISLDEWKAYGRISGICSSDEDAEKTFKHCDLDNSGNLDVDEMTRQHLGFWYTLDPNADGLYGNFVP | 358 | 3.82 | 21 | 10.7 | 115.9 | –
4 | Mt-clytin K168G: Mitochondrial K168G modified Clytin, SEQ ID NO:16 (protein) MSVLTPLLLRGLTGSARRLPVPRAKIHSLPPEGKLRPNFDNPKWVNRHKFMFNFLDINGDGKITLDEIVSKASDDICAKLGATPEQTKRHQDAVEAFFKKIGMDYGKEVEFPAFVDGWKELANYDLKLWSQNKKSLIRDWGEAVFDIFDKDGSGSISLDEWKAYGRISGICSSDEDAEKTFKHCDLDNSGGLDVDEMTRQHLGFWYTLDPNADGLYGNFVP | 232 | 5.09 | 15.1 | 19.3 | 146.8 | –
5 | Mt-clytin K168Q: Mitochondrial K168Q modified Clytin, SEQ ID NO:20 (protein) MSVLTPLLLRGLTGSARRLPVPRAKIHSLPPEGKLRPNFDNPKWVNRHKFMFNFLDINGDGKITLDEIVSKASDDICAKLGATPEQTKRHQDAVEAFFKKIGMDYGKEVEFPAFVDGWKELANYDLKLWSQNKKSLIRDWGEAVFDIFDKDGSGSISLDEWKAYGRISGICSSDEDAEKTFKHCDLDNSGQLDVDEMTRQHLGFWYTLDPNADGLYGNFVP | 335 | 4.78 | 17.4 | 14.2 | 125.8 | –
6 | Cyto-obelin: Wild-type Obelin (wt-Obelin) amino acid sequence, SEQ ID NO:4; cytosolic (protein, listed as Obelia longissima) MSSKYAVKLKTDFDNPRWIKRHKHMFDFLDINGNGKITLDEIVSKASDDICAKLEATPEQTKRHQVCVEAFFRGCGMEYGKEIAFPQFLDGWKQLATSELKKWARNEPTLIREWGDAVFDIFDKDGSGTITLDEWKAYGKISGISPSQEDCEATFRHCDLDNSGDLDVDEMTRQHLGFWYTLDPEADGLYGNGVP | – | 1.80 | 9.86 | 56.7 | 47 | –
7 | K168T (protein) MADTASKYAVKLRPNFDNPKWVNRHKFMFNFLDINGDGKITLDEIVSKASDDICAKLGATPEQTKRHQDAVEAFFKKIGMDYGKEVEFPAFVDGWKELANYDLKLWSQNKKSLIRDWGEAVFDIFDKDGSGSISLDEWKAYGRISGICSSDEDAEKTFKHCDLDNSGTLDVDEMTRQHLGFWYTLDPNADGLYGNFVP | 174 | – | – | – | – | –
8 | K168E (protein) MADTASKYAVKLRPNFDNPKWVNRHKFMFNFLDINGDGKITLDEIVSKASDDICAKLGATPEQTKRHQDAVEAFFKKIGMDYGKEVEFPAFVDGWKELANYDLKLWSQNKKSLIRDWGEAVFDIFDKDGSGSISLDEWKAYGRISGICSSDEDAEKTFKHCDLDNSGELDVDEMTRQHLGFWYTLDPNADGLYGNFVP | 176 | – | – | – | – | –
9 | wild-type Clytin (protein, listed as Clytia gregaria) MADTASKYAVKLRPNFDNPKWVNRHKFMFNFLDINGDGKITLDEIVSKASDDICAKLGATPEQTKRHQDAVEAFFKKIGMDYGKEVEFPAFVDGWKELANYDLKLWSQNKKSLIRDWGEAVFDIFDKDGSGSISLDEWKAYGRISGICSSDEDAEKTFKHCDLDNSGKLDVDEMTRQHLGFWYTLDPNADGLYGNFVP | 545 | – | – | – | – | –
10 | K168G (protein) MADTASKYAVKLRPNFDNPKWVNRHKFMFNFLDINGDGKITLDEIVSKASDDICAKLGATPEQTKRHQDAVEAFFKKIGMDYGKEVEFPAFVDGWKELANYDLKLWSQNKKSLIRDWGEAVFDIFDKDGSGSISLDEWKAYGRISGICSSDEDAEKTFKHCDLDNSGGLDVDEMTRQHLGFWYTLDPNADGLYGNFVP | – | – | – | – | – | calcium affinities comparable to wild-type Aequorin, however, better than wt-Clytin
11 | K168S (protein) MADTASKYAVKLRPNFDNPKWVNRHKFMFNFLDINGDGKITLDEIVSKASDDICAKLGATPEQTKRHQDAVEAFFKKIGMDYGKEVEFPAFVDGWKELANYDLKLWSQNKKSLIRDWGEAVFDIFDKDGSGSISLDEWKAYGRISGICSSDEDAEKTFKHCDLDNSGSLDVDEMTRQHLGFWYTLDPNADGLYGNFVP | – | – | – | – | – | calcium affinities comparable to wild-type Aequorin, however, better than wt-Clytin
12 | Cyto-clytin K168E: K168E modified Clytin amino acid sequence, SEQ ID NO:11; cytosolic (protein) MADTASKYAVKLRPNFDNPKWVNRHKFMFNFLDINGDGKITLDEIVSKASDDICAKLGATPEQTKRHQDAVEAFFKKIGMDYGKEVEFPAFVDGWKELANYDLKLWSQNKKSLIRDWGEAVFDIFDKDGSGSISLDEWKAYGRISGICSSDEDAEKTFKHCDLDNSGELDVDEMTRQHLGFWYTLDPNADGLYGNFVP | – | 6.47 | 7.9 | 26.2 | 66.4 | –
